This is an account of results in PMC3781594 (Circulation, 2013).

The target of assay [1] is T1, recombinant CD74 ectodomain (sCD74 = CD74 73-232) (UniProt P04233-2 73-232).
T1 sequence (looked up): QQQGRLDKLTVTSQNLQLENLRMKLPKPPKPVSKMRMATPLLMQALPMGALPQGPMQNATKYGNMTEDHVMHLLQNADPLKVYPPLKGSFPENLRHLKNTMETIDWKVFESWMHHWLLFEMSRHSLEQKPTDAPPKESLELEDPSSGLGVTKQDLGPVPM
Put plainly: ELISA. Background: ELISA stands for enzyme-linked immunosorbent assay.

The target in assay [2] is T1, recombinant CD74 ectodomain (sCD74 = …). Put plainly: SPR. A general note: SPR reads the build-up and loss of mass on a sensor chip optically.
For assay [3] the target is unchanged. Put plainly: SPR. This is another data set of the same source.

Where two headings read alike, the source gives them in different places.

Broadly, the Kd is a measure of binding affinity in units of concentration.

B1: biotinylated MIF (ligand, UniProt P14174 1-115, looked up)
chain: MPMFIVNTNVPRASVPDGFLSELTQQLAQATGKPPQYIAVHVVPDQLMAFGGSSEPCALCSLHSIGKIGGAQNRSYSKLLCGLLAERLRISPDRVYINYYDMNAANVGWNNSTFA
modifications: biotin (site not stated)
As to B1, the “fold increase of MIF bound with 500 nM MIF20 against MIF without agonist” value in assay [1] is about 2.5 fold.

B2: human macrophage migration inhibitory factor (MIF) (ligand, UniProt P14174 1-115, looked up)
chain: MPMFIVNTNVPRASVPDGFLSELTQQLAQATGKPPQYIAVHVVPDQLMAFGGSSEPCALCSLHSIGKIGGAQNRSYSKLLCGLLAERLRISPDRVYINYYDMNAANVGWNNSTFA
For B2, the Kd in assay [2] is 2.25 nM; in assay [3], 6.06 nM.
